Results reported in article PMC3795721, “Screening for Protein-DNA Interactions by Automatable DNA-Protein Interaction ELISA”.

T1: AtTIFY1 (Arabidopsis thaliana, UniProt Q9LRH6 1-309)
T1 sequence: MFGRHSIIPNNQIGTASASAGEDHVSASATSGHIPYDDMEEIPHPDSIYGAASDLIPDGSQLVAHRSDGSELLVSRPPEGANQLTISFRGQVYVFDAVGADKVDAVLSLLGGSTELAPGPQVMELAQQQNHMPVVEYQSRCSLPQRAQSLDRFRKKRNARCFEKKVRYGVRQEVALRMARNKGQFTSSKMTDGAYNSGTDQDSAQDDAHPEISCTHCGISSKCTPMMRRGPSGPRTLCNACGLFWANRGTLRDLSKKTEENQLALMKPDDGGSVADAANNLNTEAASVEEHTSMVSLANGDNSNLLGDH

B1: 227 (dsDNA)
DNA 1: AAAAAAGGCTCCGGCCCCCAATCGCAAAAA
DNA 2: TTTTTGCGATTGGGGGCCGGAGCCTTTTTT
B2: 305 (dsDNA)
DNA 1: AAAAAACGCTTTCAGTTTTGATCTTAAAAA
DNA 2: TTTTTAAGATCAAAACTGAAAGCGTTTTTT
B3: 204 (dsDNA)
DNA 1: AAAAAAGGAAGTACTGACGATCTGGAAAAA
DNA 2: TTTTTCCAGATCGTCAGTACTTCCTTTTTT
B4: 15 (dsDNA)
DNA 1: AAAAAAATCCGATCGATGCATATATAAAA
DNA 2: TTTTATATATGCATCGATCGGATTTTTTT
B5: 300 (dsDNA)
DNA 1: AAAAAACTCGCGCTTGCATCTGTGCGAAAA
DNA 2: TTTTCGCACAGATGCAAGCGCGAGTTTTTT
B6: 314 (dsDNA)
DNA 1: AAAAAATTGGCACACATGATCTCGGGAAAA
DNA 2: TTTTCCCGAGATCATGTGTGCCAATTTTTT
B7: 238 (dsDNA)
DNA 1: AAAAAATCGGGGATCCGGGCGGTTGCAAAA
DNA 2: TTTTGCAACCGCCCGGATCCCCGATTTTTT
B8: 130 (dsDNA)
DNA 1: AAAAAACGCAACTCCGGATGTGGGGTAAAA
DNA 2: TTTTACCCCACATCCGGAGTTGCGTTTTTT
B9: 290 (dsDNA)
DNA 1: AAAAAATGTCTAGACTCGGACATTCGAAAA
DNA 2: TTTTCGAATGTCCGAGTCTAGACATTTTTT
B10: 160 (dsDNA)
DNA 1: AAAAAACGGTCGCGATCGTTAATGATAAAA
DNA 2: TTTTATCATTAACGATCGCGACCGTTTTTT
B11: probe 38 version with palindromic TGATCA (dsDNA)
DNA 1: AAAAAATTTATACTTGATCATGGCTTAAAA
DNA 2: TTTTAAGCCATGATCAAGTATAAATTTTTT
B12: 334 (dsDNA)
DNA 1: AAAAAATTCCGGCTTGACGCTGCATAAAAA
DNA 2: TTTTTATGCAGCGTCAAGCCGGAATTTTTT

Tests used:
[1] = biological target: T1, AtTIFY1; experiment: DPI-ELISA; DPI-ELISA, streptavidin 384-well plate, 1-2 pmol biotinylated dsDNA per well, crude native E. coli extract, anti-His detection; buffer as in Brand et al. [46],; high values mean tight binding; details: tags: C-terminal His (pET-DEST42); label: 5' biotin on forward strand
[2] = biological target: WRKY33 cDBD (Arabidopsis thaliana, UniProt Q8S8P5 345-449); experiment: as above; details: tags: C-terminal His (pET-DEST42); label: 5' biotin on forward strand
[3] = biological target: T1, AtTIFY1; experiment: DPI-ELISA; highest affinity; DPI-ELISA on streptavidin plates with biotinylated dsDNA (1 pmol in Figure S1, 2 pmol in Figure 1 legend) and crude E. coli extract; anti-His detection; buffer, pH and temperature not given (ref 46); details: protein: recombinant; tags: C-terminal His (pET-DEST42); label: 5' biotin on forward strand; blunt

WRKY33 cDBD, sequence (Q8S8P5 other isoform, or with tags, fused parts or gaps): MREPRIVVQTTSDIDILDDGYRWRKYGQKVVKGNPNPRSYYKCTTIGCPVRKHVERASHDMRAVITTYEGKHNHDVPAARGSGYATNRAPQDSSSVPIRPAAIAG

Row | Binder | binding signal [1] | binding signal [2] | binding result [3]
1 | B1 | 1.44 relative normalized absorbance |  | 
2 | B2 | 1.55 relative normalized absorbance |  | 
3 | B3 | 1.52 relative normalized absorbance |  | 
4 | B4 | 1.63 relative normalized absorbance |  | 
5 | B5 | 1.45 relative normalized absorbance |  | 
6 | B6 | 1.5 relative normalized absorbance |  | 
7 | B7 | 1.69 relative normalized absorbance |  | 
8 | B8 | 1.54 relative normalized absorbance |  | 
9 | B9 | 1.52 relative normalized absorbance |  | 
10 | B10 | 1.47 relative normalized absorbance | 2.05 relative normalized absorbance | 
11 | B11 |  |  | binds
12 | B12 | 1.43 relative normalized absorbance |  | 
